Reference: article PMC2667502 (2009)

Biological target: TrkB/P75NTR complex (Mus musculus, UniProt P15209)
Test: dose-response of neuronal survival in ventral midbrain cultures

Sequence of TrkB/P75NTR complex (P15209 32-821, chain 1 of 2): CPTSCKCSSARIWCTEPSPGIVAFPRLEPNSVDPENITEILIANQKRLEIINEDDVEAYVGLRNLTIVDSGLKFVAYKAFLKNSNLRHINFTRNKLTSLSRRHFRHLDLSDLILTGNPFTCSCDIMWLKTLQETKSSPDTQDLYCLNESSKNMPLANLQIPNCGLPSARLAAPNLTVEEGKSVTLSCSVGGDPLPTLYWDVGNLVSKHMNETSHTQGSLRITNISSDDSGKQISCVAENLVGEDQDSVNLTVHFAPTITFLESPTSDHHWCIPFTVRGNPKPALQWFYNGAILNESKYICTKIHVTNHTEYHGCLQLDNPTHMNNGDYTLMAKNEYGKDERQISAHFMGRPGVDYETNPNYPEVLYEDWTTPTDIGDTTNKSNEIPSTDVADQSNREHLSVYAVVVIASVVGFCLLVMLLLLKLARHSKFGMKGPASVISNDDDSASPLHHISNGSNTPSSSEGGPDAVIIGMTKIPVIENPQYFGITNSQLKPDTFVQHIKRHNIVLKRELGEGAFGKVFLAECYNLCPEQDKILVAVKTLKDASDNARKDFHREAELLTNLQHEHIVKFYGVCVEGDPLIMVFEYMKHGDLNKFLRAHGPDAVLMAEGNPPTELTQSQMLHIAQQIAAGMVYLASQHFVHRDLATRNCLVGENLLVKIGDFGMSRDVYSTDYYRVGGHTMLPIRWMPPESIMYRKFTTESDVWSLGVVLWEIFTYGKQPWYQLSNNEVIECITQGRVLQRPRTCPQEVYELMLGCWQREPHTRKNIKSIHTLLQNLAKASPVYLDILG
Sequence of TrkB/P75NTR complex (chain, as listed by the source, chain 2 of 2): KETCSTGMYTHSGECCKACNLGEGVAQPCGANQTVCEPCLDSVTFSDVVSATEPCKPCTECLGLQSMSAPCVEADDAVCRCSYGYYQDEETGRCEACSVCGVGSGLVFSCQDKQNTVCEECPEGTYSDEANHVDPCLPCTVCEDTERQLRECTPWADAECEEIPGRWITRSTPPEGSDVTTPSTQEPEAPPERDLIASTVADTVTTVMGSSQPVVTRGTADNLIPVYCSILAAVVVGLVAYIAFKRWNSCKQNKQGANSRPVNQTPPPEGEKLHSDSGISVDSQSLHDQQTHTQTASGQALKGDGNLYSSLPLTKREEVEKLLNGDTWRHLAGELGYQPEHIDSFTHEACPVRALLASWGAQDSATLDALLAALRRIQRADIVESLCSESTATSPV

B1: BDNF (protein)
chain: HSDPARRGELSVCDSISEWVTAADKKTAVDMSGGTVTVLEKVPVSKGQLKQYFYETKCNPMGYTKEGCRGIDKRHWNSQCRTTQSYVRALTMDSKKRIGWRFIRIDTSCVCTLTIKRGR
Kd: ~2.5 nM
